For series [1], the system named is S. aureus strains ATCC 25923, SHY97-3906, −4242 and RFT-5. Description: Bacterial growth in MHB. Type of series: cell-based, Staphylococcus aureus. Conditions: LF alone, sub-MIC (9.1, 36.6, 250 or 500 μg/ml); 4, 8 and 18-h; except for strain SHY97-3906. How it is done: (§1) The effect of LF or LFC at concentration sub-MICs alone or in combination with sub-MICs of antibiotics on bacterial growth rate of S. aureus, E. coli and K. pneumoniae was determined by monitoring bacterial cultures in MHB with the O.D.600 nm or by the count of colony forming unit per ml (cfu/ml). A volume of 2.5 ml of overnight cultures in MHB adjusted to 0.5-1 McFarland standard in saline were used to inoculate a final volume of 25 ml of fresh MHB containing the desired concentration of tested compounds. All flasks were then incubated at 37° C. with agitation (200 rpm) for 9 h. Aliquots were removed every hour to determine the culture turbidity using the spectrophotometer Philips PU 8800 (Pye Unican Ltd, Cambridge, UK). The combined antibiotic effect on bacterial growth was also determined using concentrations of LF in the presence of different concentrations of antibiotics. Briefly, a volume of 3 ml of fresh MHB containing desired concentration of drugs was adjusted to an optical density of 0.4 at 540 nm after an overnight culture. The culture was then incubated at 37° C with agitation (200 rpm). After incubation, aliquots were removed to determine the culture turbidity (OD540nm) or cfu/ml. To determine the influence of the level of iron on of the growth inhibition by the test compound, 5 μM of FeCl3 were added to the media.

Series [2] deals with S. aureus PC-1. Description: Bacterial growth in MHB. The format is cell-based, Staphylococcus aureus. Conditions: LF or LFC alone, sub-MIC. How it is done:
as §1

The subject of the next series is S. aureus ATCC 25923. The series can be described thus: Bacterial growth in MHB. The format is cell-based, Staphylococcus aureus. Conditions: LF alone, sub-MIC. How it is done: as §1
Series [3] deals with S. aureus PC-1. The series can be described thus: Cell morphology by transmission electron microscopy. Type of series: cell-based, Staphylococcus aureus. Conditions: exposure to LF or LFC. How it is done: Bacterial cells were grown overnight on MHA or MHB containing sub-MICs of penicillin G with or without LF or LFC. Microorganisms were prepared for transmission electron microscopy by fixation with glutaraldehyde followed by ferritin labelling. This method allows good- preservation of capsular material. Briefly, bacterial cells grown in the presence or absence of antibiotics were fixed in cacodylate buffer (0.1 M, pH 7.0) containing 5% (v/v) glutaraldehyde, for 2 h at 20° C. Fixed microorganims were suspended in cacodylate buffer and allowed to react with the polycationic ferritin (Sigma Chemicals, St-Louis, Mo.; final concentration 1.0 mg/ml) for 30 min at 20° C. The reaction was slowed down by 10-fold dilution with buffer, and the microorganisms were centrifuged and washed three times in cacodylate buffer. Bacterial cells were then immobilized in 4% (w/v) agar, washed 5 times in cacodylate buffer and post-fixed with 2% (w/v) osmium tetroxide for 2 h. […]
Bacterial cells of PC-1 (a constitutively high producing β-lactamase strain) were grown overnight in MHB containing 8 μg/ml of penicillin G, 16 μg/ml of LFC alone or in combination for 4-h at 37° C. with agitation at 150 rpm. Bacteria cell morphology was evaluated by transmission electron microscopy after fixation and ferritin labelling method as previously described.

In series [4] the test system is β-lactamase activity of S. aureus PC-1. The series can be described thus: β-lactamase activity, nitrocefin assay, bovine LF/LFC. Type of series: cell-based. Conditions: LF 1 mg/ml (P<0.05); LFC 32 or 64 μg/ml (P<0.001). How it is done:
(§2) The effects of sub-MICs of LF (1 mg/ml), LFC (32 and 64 μg/ml) alone or in combination with ampicillin (4μg/ml) or penicillin G (8 μg/ml) were evaluated on the β-lactamase activity of S. aureus strains SHY97-4320 and PC-1. The chromogenic cephalosporin nitrocefin (Becton Dickinson, Microbiology, Cockeysville, Md.) was used in a quantitative spectrophotometric assay. Bacterial cells were first exposed during 4 and 22-h to drugs in broth. The number of bacteria (cfu/ml) were determined and cells aliquots were centrifuged at each point in time. The pellets were suspended in 10 mM HEPES buffer (pH 7.4) to an OD415 nm of 1 for PC-1 and 2 for SHY97-4320. Nitrocefin (100 μM) was added to 100 μl of cells in a final volume of 1 ml. Hydrolysis was measured at 486 nm on spectrophotometer. β-lactamase activity was expressed as ΔO.D.486 nm/min and corrected for bacterial OD.

Series [5] concerns β-lactamase activity of S. aureus SHY97-4320. The series is described as above. Type of series: cell-based. How it is done:
as §2

Sequence of β-lactamase activity of S. aureus SHY97-4320 (P00807 25-281): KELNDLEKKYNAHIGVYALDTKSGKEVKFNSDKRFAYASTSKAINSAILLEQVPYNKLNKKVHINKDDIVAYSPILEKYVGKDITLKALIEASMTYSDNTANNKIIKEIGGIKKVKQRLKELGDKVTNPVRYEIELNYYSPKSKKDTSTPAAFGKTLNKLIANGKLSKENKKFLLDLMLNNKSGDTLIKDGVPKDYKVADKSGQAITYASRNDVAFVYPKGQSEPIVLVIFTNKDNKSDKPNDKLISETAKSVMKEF
Sequence of β-lactamase activity of S. aureus PC-1 (P00807 25-281): as above

B1: LF: bovine lactoferrin, 80-kDa iron-binding glycoprotein found in milk (protein, UniProt P24627 20-708, looked up)
Lactotransferrin: APRKNVRWCTISQPEWFKCRRWQWRMKKLGAPSITCVRRAFALECIRAIAEKKADAVTLDGGMVFEAGRDPYKLRPVAAEIYGTKESPQTHYYAVAVVKKGSNFQLDQLQGRKSCHTGLGRSAGWIIPMGILRPYLSWTESLEPLQGAVAKFFSASCVPCIDRQAYPNLCQLCKGEGENQCACSSREPYFGYSGAFKCLQDGAGDVAFVKETTVFENLPEKADRDQYELLCLNNSRAPVDAFKECHLAQVPSHAVVARSVDGKEDLIWKLLSKAQEKFGKNKSRSFQLFGSPPGQRDLLFKDSALGFLRIPSKVDSALYLGSRYLTTLKNLRETAEEVKARYTRVVWCAVGPEEQKKCQQWSQQSGQNVTCATASTTDDCIVLVLKGEADALNLDGGYIYTAGKCGLVPVLAENRKSSKHSSLDCVLRPTEGYLAVAVVKKANEGLTWNSLKDKKSCHTAVDRTAGWNIPMGLIVNQTGSCAFDEFFSQSCAPGADPKSRLCALCAGDDQGLDKCVPNSKEKYYGYTGAFRCLAEDVGDVAFVKNDTVWENTNGESTADWAKNLNREDFRLLCLDGTRKPVTEAQSCHLAVAPNHAVVSRSDRAAHVKQVLLHQQALFGKNGKNCPDKFCLFKSETKNLLFNDNTECLAKLGGRPTYEEYLGTEYVTAIANLKKCSTSPLLEACAFLTR
Regarding B1, the growth result is “did not affect the growth” in series [1], “delayed growth” in the series with S. aureus PC-1 [2] and “delayed growth” in the series on S. aureus ATCC 25923. The “shape and size of cells” value in the series on S. aureus PC-1 [3] was “affected the shape and the size”. Moreover, the β-lactamase activity result was “moderately reduces β-lactamase activity” in series [4]; “no β-lactamase activity” in series [5] (LF 1 mg/ml alone); “a significant reduction of β-lactamase activity” in series [5] (LF 1 mg/ml in combination with 8 μg/ml penicillin G, P<0.001).

For the origin of these results see US20030134779A1, “Method and composition for treatment and/or prevention of antibiotic-resistant microorganism infections” (priority 2002, published 2003).
